How the values were obtained:
HIV-1 particles = assay: Release of HIV-1 virus-like particles from transfected COS-1 cells (Western blot of particles, anti-CA); assay type: cell-based; conditions: for amount of mature CA in released virus, of the control (0 μM pa) level: COS-1 cells with rev, pol and wild-type gag
viral protein (Gag) = assay: Intracellular steady-state level of viral proteins in COS-1 cells (S1 and P1 fractions, Western blot, anti-CA); assay type: cell-based, HIV-1; conditions: for Gag Δp6 in S1 and P1 fractions: gagΔp6, same conditions; for viral protein in P1 fraction / viral protein in S1 fraction: wild-type gag, pol, rev, conditions of greatest inhibition
Tsg101 = target: T1, Tsg101 (Homo sapiens, UniProt Q99816); conditions: N- or C-terminally deleted Pr55^Gag fused to GAL4 DNA-binding domain; FIG. 1A
T1 construct: expressed in transfected cells; host or cells: Saccharomyces cerevisiae Y153
Procedure: 2-hybrid assay. […] Vectors pGBT9 and pGAD424 encoding PR55^Gag or Tsg101 sequences as GAL4 activation and binding domain fusion proteins were transformed into Saccharomyces cerevisiae Y153 using procedures previously described (Bartel, P. L. & Fields, S., 1995, Methods Enzymol. 254,241-263). Briefly, interactions were detected using a selection for Trp and Leu prototrophy followed by quantitative assay for LacZ activation. […] Mapping of the interacting domain was performed using vectors encoding the DNA-binding or activation domain of the yeast GAL4 transcriptional activator protein fused to truncations, deletions or point mutations of the proteins. […] Expression of all GAL4 fusions was checked by analysis of yeast cell extracts by SDS-gel electrophoresis and Western blotting with an antibody directed against the GAL4 binding domain (Upstate Biochemical) and GAL4 transactivation domain (Santa Cruz).

[1] = increasing expression, pa 1 and 5 μM, wild-type gag

Molecule | amount of mature CA in released virus, of the control (0 μM pa) level (HIV-1 particles; 1 μM pa) [%] | amount of mature CA in released virus, of the control (0 μM pa) level (HIV-1 particles; 5 μM pa) [%] | release of immature particles containing GagΔp6 (HIV-1 particles; Tsg101 overexpression, pa 0, 1, 5 μM, gagΔp6) | Gag Δp6 in S1 and P1 fractions (viral protein (Gag)) | viral protein in P1 fraction (viral protein (Gag)) | viral protein in S1 fraction (viral protein (Gag)) | Gag processing in released particles (HIV-1 particles; [1]) | release of virus particles (HIV-1 particles; [1]) | LacZ reporter gene activation signal (Tsg101)
pIND-h-Tsg101-FLAG: FLAG-tagged wild-type human Tsg101 overexpressed from an ecdysone-inducible plasmid (protein, left off: small tags and cut ends, FLAG-tagged wild-type human Tsg101 overexpressed from an ecdysone-inducible plasmid) MAVSESQLKKMVSKYKYRDLTVRETVNVITLYKDLKPVLDSYVFNDGSSRELMNLTGTIPVPYRGNTYNIPICLWLLDTYPYNPPICFVKPTSSMTIKTGKHVDANGKIYLPYLHEWKHPQSDLLGLIQVMIVVFGDEPPVFSRPISASYPPYQATGPPNTSYMPGMPGGISPYPSGYPPNPSGYPGCPYPPGGPYPATTSSQYPSQPPVTTVGPSRDGTISEDTIRASLISAVSDKLRWRMKEEMDRAQAELNALKRTEEDLKKGHQKLEEMVTRLDQEVAEVDKNIELLKKKDEELSSALEKMENQSENNDIDEVIIPTAPLYKQILNLYAEENAIEDTIFYLGEALRRGVIDLDVFLKHVRLLSRKQFQLRALMQKARKTAGLSDLY | ~60 | ~30 | not significantly affected | detected in both S1 and P1 fractions | no detectable viral protein | no detectable viral protein |  |  | 
SD5-59 (protein, left off: small tags and cut ends) MAVSESQLKKMVSKYKYRDLTVRETVNVITLYKDLKPVLDSYVFNDGSSRELMNLTGTIPVPYRGNTYNIPICLWLLDTYPYNPPICFVKPTSSMTIKTGKHVDANGKIYLPYLHEWKHPQSDLLGLIQVMIVVFGDEPPVFSRPISASYPPYQATGPPNTSYMPGMPGGISPYPSGYPPNPSGYPGCPYPPGGPYPATTSSQYPSQPPVTTVGPSRDGTISEDTIRASLISAVSDKLRWRMKEEMDRAQAELNALKRTEEDLKKGHQKLEEMVTRLDQEVAEVDKNIELLKKKDEELSSALEKMENQSENNDIDEVIIPTAPLYKQILNLYAEENAIEDTIFYLGEGGVIDLDVFLKHVRLLSRKQFQLRALMQKARKTAGLSDLY |  |  |  | accumulated at higher levels in both fractions | no protein was found | detectable levels of viral protein | accumulation of particle-associated uncleaved Gag precursor | permitted release of virus particles | 
p1-p6: p1-p6 region of HIV-1 Pr55Gag fused to GAL4 DNA-binding domain (protein) MKLLSSIEQACDICRLKKLKCSKEKPKCAKCLKNNWECRYSPKTKRSPLTRAHLTEVESRLERLEQLFLLIFPREDLDMILKMDSLQDIKALLTGLFVQDNVNKDAVTDRLASVETDMPLTLRQHRISATSSSEESSNKGQRQLTVSGKIWPSYKGRPGNFLQSRPEPTAPPFLQSRPEPTAPPEESFRSGVETTTPPQKQEPIDKELYPLTSLRSLFGNDPSSQ |  |  |  |  |  |  |  |  | retained

— patent US7494767B2, “Assay for TSG101 as inhibitors of HIV production” (priority 2001, dated 2009)
